T1: human IL-2 receptor (human, UniProt P01589 22-272; P14784 27-551; P31785 23-369)
T1 sequence (looked up) 1: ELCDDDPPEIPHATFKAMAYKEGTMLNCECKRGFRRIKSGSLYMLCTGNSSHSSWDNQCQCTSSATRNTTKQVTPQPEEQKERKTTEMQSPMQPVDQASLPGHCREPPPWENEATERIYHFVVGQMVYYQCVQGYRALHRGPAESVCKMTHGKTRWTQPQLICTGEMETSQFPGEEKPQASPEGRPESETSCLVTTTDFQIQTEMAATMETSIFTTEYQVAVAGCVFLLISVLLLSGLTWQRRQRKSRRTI
T1 sequence (looked up) 2: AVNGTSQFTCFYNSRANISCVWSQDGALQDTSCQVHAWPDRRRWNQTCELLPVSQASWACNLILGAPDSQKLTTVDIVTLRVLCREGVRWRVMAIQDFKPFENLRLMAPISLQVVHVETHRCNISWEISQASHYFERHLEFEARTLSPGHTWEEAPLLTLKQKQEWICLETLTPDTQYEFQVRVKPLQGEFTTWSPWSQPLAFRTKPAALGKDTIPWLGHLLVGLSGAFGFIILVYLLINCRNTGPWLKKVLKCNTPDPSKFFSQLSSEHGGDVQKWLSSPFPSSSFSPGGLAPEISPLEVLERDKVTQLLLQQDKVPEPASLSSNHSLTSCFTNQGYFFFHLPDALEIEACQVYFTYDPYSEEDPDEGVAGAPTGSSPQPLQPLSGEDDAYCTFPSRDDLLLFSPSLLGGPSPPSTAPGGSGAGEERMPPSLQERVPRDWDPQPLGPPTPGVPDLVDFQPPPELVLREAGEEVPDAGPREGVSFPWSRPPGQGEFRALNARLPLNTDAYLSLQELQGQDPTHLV
T1 sequence (looked up) 3: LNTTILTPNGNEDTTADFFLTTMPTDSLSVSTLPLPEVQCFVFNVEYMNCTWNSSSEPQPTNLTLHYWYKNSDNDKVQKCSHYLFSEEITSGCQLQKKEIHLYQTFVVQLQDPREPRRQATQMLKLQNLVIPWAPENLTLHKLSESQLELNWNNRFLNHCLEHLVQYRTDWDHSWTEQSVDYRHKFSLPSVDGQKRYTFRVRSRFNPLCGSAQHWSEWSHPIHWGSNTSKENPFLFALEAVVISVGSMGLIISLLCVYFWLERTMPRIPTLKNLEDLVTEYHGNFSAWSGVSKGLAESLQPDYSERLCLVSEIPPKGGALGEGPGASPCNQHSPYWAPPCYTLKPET


Experiments:
[1] = molecular target: human PD-1 overexpressed on HEK-Blue reporter cells (human, UniProt Q15116 25-288); assay: cell-based or functional assay
human IL-2 receptor = molecular target: T1, human IL-2 receptor; assay: cell-based or functional assay

Sequence of human PD-1 overexpressed on HEK-Blue reporter cells (Q15116 25-288): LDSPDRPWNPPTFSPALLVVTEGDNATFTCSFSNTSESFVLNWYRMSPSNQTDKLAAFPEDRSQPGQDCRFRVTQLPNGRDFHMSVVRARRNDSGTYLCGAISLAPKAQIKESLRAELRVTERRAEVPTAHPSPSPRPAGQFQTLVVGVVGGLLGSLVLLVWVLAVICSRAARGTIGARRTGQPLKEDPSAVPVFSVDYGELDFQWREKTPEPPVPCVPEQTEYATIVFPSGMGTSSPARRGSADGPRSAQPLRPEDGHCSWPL

IL-2 signal transduction, % of rIL2, HEK-IL-2-PD-1 cells [1] [%]	IL-2 signal transduction, % of rIL2, HEK-IL-2 cells (human IL-2 receptor) [%]	Binder
35	4	IL-2(L18R/Q22E/R38D/K43E/E61R)/PD-L1(mut2)-Fc (Fc fusion) chain 1: FTVTVPKDLYVVEYGSNMTIECKFPVEKQLDLAALQVYWMMEDKNIIQFVHGEEDLKVQHSSYRQRARLLKDQLSLGNAALQITDVKLQDAGVYTCLIAYKGADYKRITVKVNAPYNKINQRILVVDPVTSEHELTCQAEGYPKAEVIWTSSDHQVLSGKTTTTNSKREEKLFNVTSTLRINTTTNEIFYCTFRRLDPEENHTAELVIPELPLAHPPNERGGGSGAPTSSSTKKTQLQLEHLRLDLEMILNGINNYKNPKLTDMLTFEFYMPKKATELKHLQCLERELKPLEEVLNLAQSKNFHLRPRDLISNINVIVLELKGSETTFMCEYADETATIVEFLNRWITFCQSIISTLTGGGGSGGGDKTHTCPPCPAPEKKGGPSVFLFPPKPKDTLMISRTPEVTCVVVDVSHEDPEVKFNWYVDGVEVHNAKTKPREEQYNSTYRVVSVLTVLHQDWLNGKEYKCKVSNKALPAPIEKTISKAKGQPREPQVYVLPPSREEMTKNQVSLLCLVKGFYPSDIAVEWESNGQPENRYMTWPPVLDSDGSFFLYSKLTVDKSRWQQGNVFSCSVMHEALHNHYTQKSLSLSPGK chain 2: FTVTVPKDLYVVEYGSNMTIECKFPVEKQLDLAALQVYWMMEDKNIIQFVHGEEDLKVQHSSYRQRARLLKDQLSLGNAALQITDVKLQDAGVYTCLIAYKGADYKRITVKVNAPYNKINQRILVVDPVTSEHELTCQAEGYPKAEVIWTSSDHQVLSGKTTTTNSKREEKLFNVTSTLRINTTTNEIFYCTFRRLDPEENHTAELVIPELPLAHPPNERGGGGSGGGDKTHTCPPCPAPEDEGGPSVFLFPPKPKDTLMISRTPEVTCVVVDVSHEDPEVKFNWYVDGVEVHNAKTKPREEQYNSTYRVVSVLTVLHQDWLNGKEYKCKVSNKALPAPIEKTISKAKGQPREPQVYVYPPSREEMTKNQVSLTCLVKGFYPSDIAVEWESNGQPENNYKTTPPVLDEDGSFALVSKLTVDKSRWQQGNVFSCSVMHEALHNHYTQKSLSLSPGK
5	< 0.1	IL-2(L18R/Q22E/R38D/K43E/E61R/Q126T)/PD-L1(mut2)-Fc (Fc fusion) chain 1: FTVTVPKDLYVVEYGSNMTIECKFPVEKQLDLAALQVYWMMEDKNIIQFVHGEEDLKVQHSSYRQRARLLKDQLSLGNAALQITDVKLQDAGVYTCLIAYKGADYKRITVKVNAPYNKINQRILVVDPVTSEHELTCQAEGYPKAEVIWTSSDHQVLSGKTTTTNSKREEKLFNVTSTLRINTTTNEIFYCTFRRLDPEENHTAELVIPELPLAHPPNERGGGSGAPTSSSTKKTQLQLEHLRLDLEMILNGINNYKNPKLTDMLTFEFYMPKKATELKHLQCLERELKPLEEVLNLAQSKNFHLRPRDLISNINVIVLELKGSETTFMCEYADETATIVEFLNRWITFCTSIISTLTGGGGSGGGDKTHTCPPCPAPEKKGGPSVFLFPPKPKDTLMISRTPEVTCVVVDVSHEDPEVKFNWYVDGVEVHNAKTKPREEQYNSTYRVVSVLTVLHQDWLNGKEYKCKVSNKALPAPIEKTISKAKGQPREPQVYVLPPSREEMTKNQVSLLCLVKGFYPSDIAVEWESNGQPENRYMTWPPVLDSDGSFFLYSKLTVDKSRWQQGNVFSCSVMHEALHNHYTQKSLSLSPGK chain 2: FTVTVPKDLYVVEYGSNMTIECKFPVEKQLDLAALQVYWMMEDKNIIQFVHGEEDLKVQHSSYRQRARLLKDQLSLGNAALQITDVKLQDAGVYTCLIAYKGADYKRITVKVNAPYNKINQRILVVDPVTSEHELTCQAEGYPKAEVIWTSSDHQVLSGKTTTTNSKREEKLFNVTSTLRINTTTNEIFYCTFRRLDPEENHTAELVIPELPLAHPPNERGGGGSGGGDKTHTCPPCPAPEDEGGPSVFLFPPKPKDTLMISRTPEVTCVVVDVSHEDPEVKFNWYVDGVEVHNAKTKPREEQYNSTYRVVSVLTVLHQDWLNGKEYKCKVSNKALPAPIEKTISKAKGQPREPQVYVYPPSREEMTKNQVSLTCLVKGFYPSDIAVEWESNGQPENNYKTTPPVLDEDGSFALVSKLTVDKSRWQQGNVFSCSVMHEALHNHYTQKSLSLSPGK
20	2	IL-2(R38D/K43E/E61R/Q126T)/PD-L1(mut2)-Fc (Fc fusion) chain 1: FTVTVPKDLYVVEYGSNMTIECKFPVEKQLDLAALQVYWMMEDKNIIQFVHGEEDLKVQHSSYRQRARLLKDQLSLGNAALQITDVKLQDAGVYTCLIAYKGADYKRITVKVNAPYNKINQRILVVDPVTSEHELTCQAEGYPKAEVIWTSSDHQVLSGKTTTTNSKREEKLFNVTSTLRINTTTNEIFYCTFRRLDPEENHTAELVIPELPLAHPPNERGGGSGAPTSSSTKKTQLQLEHLLLDLQMILNGINNYKNPKLTDMLTFEFYMPKKATELKHLQCLERELKPLEEVLNLAQSKNFHLRPRDLISNINVIVLELKGSETTFMCEYADETATIVEFLNRWITFCTSIISTLTGGGGSGGGDKTHTCPPCPAPEKKGGPSVFLFPPKPKDTLMISRTPEVTCVVVDVSHEDPEVKFNWYVDGVEVHNAKTKPREEQYNSTYRVVSVLTVLHQDWLNGKEYKCKVSNKALPAPIEKTISKAKGQPREPQVYVLPPSREEMTKNQVSLLCLVKGFYPSDIAVEWESNGQPENRYMTWPPVLDSDGSFFLYSKLTVDKSRWQQGNVFSCSVMHEALHNHYTQKSLSLSPGK chain 2: FTVTVPKDLYVVEYGSNMTIECKFPVEKQLDLAALQVYWMMEDKNIIQFVHGEEDLKVQHSSYRQRARLLKDQLSLGNAALQITDVKLQDAGVYTCLIAYKGADYKRITVKVNAPYNKINQRILVVDPVTSEHELTCQAEGYPKAEVIWTSSDHQVLSGKTTTTNSKREEKLFNVTSTLRINTTTNEIFYCTFRRLDPEENHTAELVIPELPLAHPPNERGGGGSGGGDKTHTCPPCPAPEDEGGPSVFLFPPKPKDTLMISRTPEVTCVVVDVSHEDPEVKFNWYVDGVEVHNAKTKPREEQYNSTYRVVSVLTVLHQDWLNGKEYKCKVSNKALPAPIEKTISKAKGQPREPQVYVYPPSREEMTKNQVSLTCLVKGFYPSDIAVEWESNGQPENNYKTTPPVLDEDGSFALVSKLTVDKSRWQQGNVFSCSVMHEALHNHYTQKSLSLSPGK
< 0.1	< 0.1	IL-2(L18R/Q22E/R38D/K43E/E61R/Q126T/S130R)/PD-L1(mut2)-Fc (Fc fusion) chain 1: FTVTVPKDLYVVEYGSNMTIECKFPVEKQLDLAALQVYWMMEDKNIIQFVHGEEDLKVQHSSYRQRARLLKDQLSLGNAALQITDVKLQDAGVYTCLIAYKGADYKRITVKVNAPYNKINQRILVVDPVTSEHELTCQAEGYPKAEVIWTSSDHQVLSGKTTTTNSKREEKLFNVTSTLRINTTTNEIFYCTFRRLDPEENHTAELVIPELPLAHPPNERGGGSGAPTSSSTKKTQLQLEHLRLDLEMILNGINNYKNPKLTDMLTFEFYMPKKATELKHLQCLERELKPLEEVLNLAQSKNFHLRPRDLISNINVIVLELKGSETTFMCEYADETATIVEFLNRWITFCTSIIRTLTGGGGSGGGDKTHTCPPCPAPEKKGGPSVFLFPPKPKDTLMISRTPEVTCVVVDVSHEDPEVKFNWYVDGVEVHNAKTKPREEQYNSTYRVVSVLTVLHQDWLNGKEYKCKVSNKALPAPIEKTISKAKGQPREPQVYVLPPSREEMTKNQVSLLCLVKGFYPSDIAVEWESNGQPENRYMTWPPVLDSDGSFFLYSKLTVDKSRWQQGNVFSCSVMHEALHNHYTQKSLSLSPGK chain 2: FTVTVPKDLYVVEYGSNMTIECKFPVEKQLDLAALQVYWMMEDKNIIQFVHGEEDLKVQHSSYRQRARLLKDQLSLGNAALQITDVKLQDAGVYTCLIAYKGADYKRITVKVNAPYNKINQRILVVDPVTSEHELTCQAEGYPKAEVIWTSSDHQVLSGKTTTTNSKREEKLFNVTSTLRINTTTNEIFYCTFRRLDPEENHTAELVIPELPLAHPPNERGGGGSGGGDKTHTCPPCPAPEDEGGPSVFLFPPKPKDTLMISRTPEVTCVVVDVSHEDPEVKFNWYVDGVEVHNAKTKPREEQYNSTYRVVSVLTVLHQDWLNGKEYKCKVSNKALPAPIEKTISKAKGQPREPQVYVYPPSREEMTKNQVSLTCLVKGFYPSDIAVEWESNGQPENNYKTTPPVLDEDGSFALVSKLTVDKSRWQQGNVFSCSVMHEALHNHYTQKSLSLSPGK

Reference: patent publication US20230167164A1 (IMMUNOWAKE, published 2023)
